Test results from US20150344570A1 (published 2015).

T1: FcγRIIb extracellular domain with C-terminal His tag (human, UniProt P31994 43-217)
T1 construct: extracellular domain; Soluble receptor expressed in FreeStyle293 cells, used as analyte in Biacore; also called FcgRIIb; 2b
T1 sequence (looked up): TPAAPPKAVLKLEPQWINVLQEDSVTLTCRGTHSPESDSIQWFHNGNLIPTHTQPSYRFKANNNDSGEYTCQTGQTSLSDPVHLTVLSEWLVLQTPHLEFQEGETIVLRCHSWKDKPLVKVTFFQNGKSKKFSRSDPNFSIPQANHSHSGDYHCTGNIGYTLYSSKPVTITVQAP

B1: GpH7-A5/GpH7-B3 variant S298_02A/GpL16-k0 (antibody, human IgG1, kappa)
heavy 1: not shown
heavy 2: not shown
light: DIVMTQSPLSLPVTPGEPASISCQASESLVHSNRNTYLHWYLQKPGQSPQLLIYKVSNRFSGVPDRFSGSGSGTDFTLKISRVEAEDVGVYYCSQNTHVPPTFGQGTKVEIERTVAAPSVFIFPPSDEQLKSGTASVVCLLNNFYPREAKVQWKVDNALQSGNSQESVTEQDSKDSTYSLSSTLTLSKADYEKHKVYACEVTHQGLSSPVTKSFNRGEC
notes: Heterodimerized anti-glypican-3 IgG1; mutation in the GpH7-B3 chain only; also called He Ab
B2: GpH7-A5/GpH7-B3 variant A330_20W/GpL16-k0 (antibody, human IgG1, kappa)
heavy 1: not shown
heavy 2: not shown
light: DIVMTQSPLSLPVTPGEPASISCQASESLVHSNRNTYLHWYLQKPGQSPQLLIYKVSNRFSGVPDRFSGSGSGTDFTLKISRVEAEDVGVYYCSQNTHVPPTFGQGTKVEIERTVAAPSVFIFPPSDEQLKSGTASVVCLLNNFYPREAKVQWKVDNALQSGNSQESVTEQDSKDSTYSLSSTLTLSKADYEKHKVYACEVTHQGLSSPVTKSFNRGEC
notes: as for B1
B3: GpH7-A5/GpH7-B3 variant E333_13S/GpL16-k0 (antibody, human IgG1, kappa)
heavy 1: not shown
heavy 2: not shown
light: DIVMTQSPLSLPVTPGEPASISCQASESLVHSNRNTYLHWYLQKPGQSPQLLIYKVSNRFSGVPDRFSGSGSGTDFTLKISRVEAEDVGVYYCSQNTHVPPTFGQGTKVEIERTVAAPSVFIFPPSDEQLKSGTASVVCLLNNFYPREAKVQWKVDNALQSGNSQESVTEQDSKDSTYSLSSTLTLSKADYEKHKVYACEVTHQGLSSPVTKSFNRGEC
notes: as for B1
B4: GpH7-A5/GpH7-B3 variant A330_04F/GpL16-k0 (antibody, human IgG1, kappa)
heavy 1: not shown
heavy 2: not shown
light: DIVMTQSPLSLPVTPGEPASISCQASESLVHSNRNTYLHWYLQKPGQSPQLLIYKVSNRFSGVPDRFSGSGSGTDFTLKISRVEAEDVGVYYCSQNTHVPPTFGQGTKVEIERTVAAPSVFIFPPSDEQLKSGTASVVCLLNNFYPREAKVQWKVDNALQSGNSQESVTEQDSKDSTYSLSSTLTLSKADYEKHKVYACEVTHQGLSSPVTKSFNRGEC
notes: as for B1
B5: GpH7-A5/GpH7-B3 variant A330_06M/GpL16-k0 (antibody, human IgG1, kappa)
heavy 1: not shown
heavy 2: not shown
light: DIVMTQSPLSLPVTPGEPASISCQASESLVHSNRNTYLHWYLQKPGQSPQLLIYKVSNRFSGVPDRFSGSGSGTDFTLKISRVEAEDVGVYYCSQNTHVPPTFGQGTKVEIERTVAAPSVFIFPPSDEQLKSGTASVVCLLNNFYPREAKVQWKVDNALQSGNSQESVTEQDSKDSTYSLSSTLTLSKADYEKHKVYACEVTHQGLSSPVTKSFNRGEC
notes: as for B1
B6: GpH7-A5/GpH7-B3 variant E333_01G/GpL16-k0 (antibody, human IgG1, kappa)
heavy 1: not shown
heavy 2: not shown
light: DIVMTQSPLSLPVTPGEPASISCQASESLVHSNRNTYLHWYLQKPGQSPQLLIYKVSNRFSGVPDRFSGSGSGTDFTLKISRVEAEDVGVYYCSQNTHVPPTFGQGTKVEIERTVAAPSVFIFPPSDEQLKSGTASVVCLLNNFYPREAKVQWKVDNALQSGNSQESVTEQDSKDSTYSLSSTLTLSKADYEKHKVYACEVTHQGLSSPVTKSFNRGEC
notes: as for B1
B7: GpH7-A5/GpH7-B3 variant E333_02A/GpL16-k0 (antibody, human IgG1, kappa)
heavy 1: not shown
heavy 2: not shown
light: DIVMTQSPLSLPVTPGEPASISCQASESLVHSNRNTYLHWYLQKPGQSPQLLIYKVSNRFSGVPDRFSGSGSGTDFTLKISRVEAEDVGVYYCSQNTHVPPTFGQGTKVEIERTVAAPSVFIFPPSDEQLKSGTASVVCLLNNFYPREAKVQWKVDNALQSGNSQESVTEQDSKDSTYSLSSTLTLSKADYEKHKVYACEVTHQGLSSPVTKSFNRGEC
notes: as for B1
B8: GpH7-A5/GpH7-B3 variant A330_07I/GpL16-k0 (antibody, human IgG1, kappa)
heavy 1: not shown
heavy 2: not shown
light: DIVMTQSPLSLPVTPGEPASISCQASESLVHSNRNTYLHWYLQKPGQSPQLLIYKVSNRFSGVPDRFSGSGSGTDFTLKISRVEAEDVGVYYCSQNTHVPPTFGQGTKVEIERTVAAPSVFIFPPSDEQLKSGTASVVCLLNNFYPREAKVQWKVDNALQSGNSQESVTEQDSKDSTYSLSSTLTLSKADYEKHKVYACEVTHQGLSSPVTKSFNRGEC
notes: as for B1
B9: GpH7-A5/GpH7-B3 variant E333_16H/GpL16-k0 (antibody, human IgG1, kappa)
heavy 1: not shown
heavy 2: not shown
light: DIVMTQSPLSLPVTPGEPASISCQASESLVHSNRNTYLHWYLQKPGQSPQLLIYKVSNRFSGVPDRFSGSGSGTDFTLKISRVEAEDVGVYYCSQNTHVPPTFGQGTKVEIERTVAAPSVFIFPPSDEQLKSGTASVVCLLNNFYPREAKVQWKVDNALQSGNSQESVTEQDSKDSTYSLSSTLTLSKADYEKHKVYACEVTHQGLSSPVTKSFNRGEC
notes: as for B1
B10: GpH7-A5/GpH7-B3 variant A330_03V/GpL16-k0 (antibody, human IgG1, kappa)
heavy 1: not shown
heavy 2: not shown
light: DIVMTQSPLSLPVTPGEPASISCQASESLVHSNRNTYLHWYLQKPGQSPQLLIYKVSNRFSGVPDRFSGSGSGTDFTLKISRVEAEDVGVYYCSQNTHVPPTFGQGTKVEIERTVAAPSVFIFPPSDEQLKSGTASVVCLLNNFYPREAKVQWKVDNALQSGNSQESVTEQDSKDSTYSLSSTLTLSKADYEKHKVYACEVTHQGLSSPVTKSFNRGEC
notes: as for B1
B11: GpH7-A5/GpH7-B3 variant I332_01G/GpL16-k0 (antibody, human IgG1, kappa)
heavy 1: not shown
heavy 2: not shown
light: DIVMTQSPLSLPVTPGEPASISCQASESLVHSNRNTYLHWYLQKPGQSPQLLIYKVSNRFSGVPDRFSGSGSGTDFTLKISRVEAEDVGVYYCSQNTHVPPTFGQGTKVEIERTVAAPSVFIFPPSDEQLKSGTASVVCLLNNFYPREAKVQWKVDNALQSGNSQESVTEQDSKDSTYSLSSTLTLSKADYEKHKVYACEVTHQGLSSPVTKSFNRGEC
notes: as for B1
B12: GpH7-A5/GpH7-B3 variant A327_11K/GpL16-k0 (antibody, human IgG1, kappa)
heavy 1: not shown
heavy 2: not shown
light: DIVMTQSPLSLPVTPGEPASISCQASESLVHSNRNTYLHWYLQKPGQSPQLLIYKVSNRFSGVPDRFSGSGSGTDFTLKISRVEAEDVGVYYCSQNTHVPPTFGQGTKVEIERTVAAPSVFIFPPSDEQLKSGTASVVCLLNNFYPREAKVQWKVDNALQSGNSQESVTEQDSKDSTYSLSSTLTLSKADYEKHKVYACEVTHQGLSSPVTKSFNRGEC
notes: as for B1
B13: GpH7-A5/GpH7-B3 variant A330_08L/GpL16-k0 (antibody, human IgG1, kappa)
heavy 1: not shown
heavy 2: not shown
light: DIVMTQSPLSLPVTPGEPASISCQASESLVHSNRNTYLHWYLQKPGQSPQLLIYKVSNRFSGVPDRFSGSGSGTDFTLKISRVEAEDVGVYYCSQNTHVPPTFGQGTKVEIERTVAAPSVFIFPPSDEQLKSGTASVVCLLNNFYPREAKVQWKVDNALQSGNSQESVTEQDSKDSTYSLSSTLTLSKADYEKHKVYACEVTHQGLSSPVTKSFNRGEC
notes: as for B1
B14: GpH7-A5/GpH7-B3 variant A330_15Y/GpL16-k0 (antibody, human IgG1, kappa)
heavy 1: not shown
heavy 2: not shown
light: DIVMTQSPLSLPVTPGEPASISCQASESLVHSNRNTYLHWYLQKPGQSPQLLIYKVSNRFSGVPDRFSGSGSGTDFTLKISRVEAEDVGVYYCSQNTHVPPTFGQGTKVEIERTVAAPSVFIFPPSDEQLKSGTASVVCLLNNFYPREAKVQWKVDNALQSGNSQESVTEQDSKDSTYSLSSTLTLSKADYEKHKVYACEVTHQGLSSPVTKSFNRGEC
notes: as for B1
B15: GpH7-A5/GpH7-B3 variant A330_10E/GpL16-k0 (antibody, human IgG1, kappa)
heavy 1: not shown
heavy 2: not shown
light: DIVMTQSPLSLPVTPGEPASISCQASESLVHSNRNTYLHWYLQKPGQSPQLLIYKVSNRFSGVPDRFSGSGSGTDFTLKISRVEAEDVGVYYCSQNTHVPPTFGQGTKVEIERTVAAPSVFIFPPSDEQLKSGTASVVCLLNNFYPREAKVQWKVDNALQSGNSQESVTEQDSKDSTYSLSSTLTLSKADYEKHKVYACEVTHQGLSSPVTKSFNRGEC
notes: as for B1

Tests used:
[1] = molecular target: T1, FcγRIIb extracellular domain with …; test: SPR (Biacore), antibody captured on antigen peptide chip, FcγR as analyte; GpH7-A5/GpH7-B3/GpL16-k0 = 100
Protocol: (§1) The heterodimerized antibodies He Abs in which one of the H chains was introduced with an alteration were assayed for their binding activities to each activating FcγR and inhibitory FcγR according to the method described in Example 4. […] The activating FcγRs in FIGS. 26, 27, 28, and 29 are FcγRIa, FcγRIIa (R), FcγRIIa (H), and FcγRIIIa, respectively.
(§2) Analysis of interaction between objective antibody and the FcγR was carried out using Biacore T100 (GE Healthcare). HBS-EP+ (GE Healthcare) was used as the running buffer, and the measurement temperature was set to 25° C. Chips produced by immobilizing the antigen peptide by the amine coupling method to a Series S Sencor Chip CM5 (GE Healthcare), or alternatively, chips produced by allowing preliminarily biotinylated antigen peptides to interact with and immobilize onto a Series S Sensor Chip SA (certified) (GE Healthcare) were used. Antibodies of interest were captured onto an antigen peptide-immobilized chip, and allowed to interact to each FcγR diluted with running buffer. To regenerate and repeatedly use the chip, the antibodies captured on the chip were washed off by reacting 10 mM glycine-HCl, pH 1.5.

[2] = molecular target: T2, FcγRIIIa extracellular domain with C-terminal His tag (human, UniProt P08637 17-208); test: as above
T2 construct: extracellular domain; also called FcgRIIIa; 3a
Protocol: as §1, §2

[3] = molecular target: T2, FcγRIIIa extracellular domain with …; test: SPR (Biacore); He/Con_3a divided by He/Con_2b (FcγRIIIa against FcγRIIb)
Protocol: as §1, §2

T2 sequence (P08637 17-208): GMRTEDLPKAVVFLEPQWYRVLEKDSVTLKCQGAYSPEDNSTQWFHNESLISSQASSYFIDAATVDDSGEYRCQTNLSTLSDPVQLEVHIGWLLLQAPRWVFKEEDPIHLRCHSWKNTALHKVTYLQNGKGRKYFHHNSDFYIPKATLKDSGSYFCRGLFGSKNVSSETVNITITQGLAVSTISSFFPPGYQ

Binder	He/Con_2b (relative binding activity) [1]	He/Con_3a (relative binding activity) [2]	He_3a/2b (IIIa/IIb) [3]
B1	73.4 % of control	160 % of control	2.18 ratio
B2	76.1 % of control	104 % of control	1.37 ratio
B3	81.8 % of control	103 % of control	1.26 ratio
B4	92.8 % of control	147 % of control	1.59 ratio
B5	80.5 % of control	142 % of control	1.76 ratio
B6	81.4 % of control	98.2 % of control	1.21 ratio
B7	83.8 % of control	105 % of control	1.26 ratio
B8	67.1 % of control	103 % of control	1.53 ratio
B9	83.3 % of control	103 % of control	1.24 ratio
B10	52.4 % of control	101 % of control	1.93 ratio
B11	87.1 % of control	111 % of control	1.27 ratio
B12	12.5 % of control	31.7 % of control	2.53 ratio
B13	70.5 % of control	124 % of control	1.77 ratio
B14	95 % of control	125 % of control	1.32 ratio
B15	70.1 % of control	84.6 % of control	1.21 ratio
